Experimental data from publication PMC12288907 (2025).

B1: recombinant H7-235 IgG1 (rH7-235 IgG1) (antibody, V domains shown)
VH: QVQLVESGGGVVQPGESLRLSCAASGFAFRTYGMHWVRQAPGKGLEWVGVIWYDGSNKYYGDSVKGRFTISRDNSQNTLYLQMNSLRAEDTAVYYCARNGERWRVEDYYYGMDVWGQGTLVTVSS
VL: EIVMTQSPLSLPVTPGEPASISCRSSQSLLHSNAHNYLDWYLQKPGQSPQLLIYLGSNRASGVPDRFSGSGSGTDFTLKISRVEAEDVGIYYCMQALQTPITFGQGTRLEIK
B2: recombinant H7-235 fragment antigen-binding region (rH7-235 Fab) (Fab, V domains shown)
VH: B1 VH
VL: B1 VL

Key:
[1] = target: T1, recombinant soluble trimeric H7 HA of A/Shanghai/02/2013 H7N9 (SH13 H7) (Influenza A virus A/Shanghai/02/2013 …); test: ELISA
[2] = target: A/Shanghai/02/2013 H7N9 (SH13) hemagglutinin HA1, monomeric (Influenza A virus A/Shanghai/02/2013 …, UniProt R4NN21 1-320, biotin (EZ-Link NHS-PEG4-Biotin, antigen:biotin 1:1) in the BLI only); test: BLI
[3] = target: T1, recombinant soluble trimeric H7 HA of …; test: BLI

| Binder | EC50 [1] [nM] | Kd [2] [nM] | Kd [3] [nM] |
| --- | --- | --- | --- |
| B1 | 0.03 | < 0.02 | < 0.02 |
| B2 | 0.16 |  | 2.12 |
